The values below come from the RNAGym collection of RNA variant scans (doi:10.1093/nar/gkz1192).

The labels stand for the following.
B1: CPEB3 Ribozyme (parent)
chain: UAACAGGGGGCCACAGCAGAAGCGUUCACGUCGCAGCCCCUGUCAGAUUCUGGUGAAUCUGCGAAUUCUGCUGUAUAUCUC

The data set covers variants of B1. Kind of data set: self-cleavage, relative activity (ratio to wild type); higher = more cleavage; in vitro, sequencing. In outline:
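CPEB3 self-cleaving ribozyme mutant libraries were made by rounds of error-prone PCR, barcoded, and transcribed in vitro with T7 RNA polymerase for 5 hours at 37°C. Cleavage occurred during transcription and a 15 min DNase I step before EDTA stop. RNAs were reverse transcribed with template switching and Illumina-sequenced, with DNA sequencing mapping barcodes to variants. Relative activity is the variant's cleaved/total read fraction divided by wild type's (minimum 5 reads), averaged across three batches.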
For G9A A45U, the self-cleavage turned out to be 0.21.

As for G9U U31G, the self-cleavage stood at 0.06. In the case of U26G C79U it was 0.4; in that of G7U C17U, 0.2.

For C39A U48A, the self-cleavage amounted to 0.21. With A35G C79A, the self-cleavage is 1.3.

For the variant A18G U74A, the self-cleavage is 0.95. The figure for U31G is 0.5. On to G46U A56U, for which the self-cleavage is 0.17. In the case of U31C C71U it was 0.25; in that of A20C U54C, 0.2; in that of C34U C44A, 0.38.

With G53C U72A, the self-cleavage came out at 1.19.

Turning to A65G U69C, the self-cleavage is 0.34.

As for A13C U78A, the self-cleavage came out at 1. The figure for G8A U41A is 0.07; for A20G C32A it is 0.27; for A15U U49C it is 0.15.

Take C37G U49C: the self-cleavage is 0.38. With U41A G73C, the self-cleavage was 0.17. The figure for U60C G73A is 1.09; for C29U U43G it is 0.48. In the case of C23U U80A it was 0.28. In the case of G6C U74C it was 0.67; in that of C11A U51C, 0.38; in that of G42U U80C, 0.51. In the case of A20G U51C, the self-cleavage came out at 0.85.

With A15C A45U, the self-cleavage was 0.45.

As for G7C U43A, the self-cleavage was 0.24.

C14G A15G: the self-cleavage amounted to 0.79.

As to G9A G53A, the self-cleavage turned out to be 0.35. The figure for A28C A56G is 0.3; for C12U C81U it is 1.22. The figure for U49A U74A is 1.34. The figure for G10A U54G is 0.16; for C14U U25C it is 0.28. With A13G U72C, the self-cleavage is 0.8.

As to C29U U69G, the self-cleavage came out at 0.35.

A2U U26C: the self-cleavage is 0.55.

Regarding U43G U48A, the self-cleavage amounted to 0.2. Regarding A3C A64G, the self-cleavage amounted to 1.17. In the case of C39U U60C it was 0.39; in that of A28G G30A, 0.2; in that of A13U G16U, 0.47. In the case of C11G U69G it was 0.14; in that of A28U U78G, 0.97; in that of U31A C71U, 0.29. The figure for G36U G61U is 0.13.

Turning to A56U U58G, the self-cleavage came out at 0.18. In the case of G63A U78C it was 0.82.

Regarding U69A A77U, the self-cleavage worked out at 0.75. In the case of A35U U58A it was 0.32; in that of A13U A75G, 1.25.

For the variant A5G C68A, the self-cleavage amounted to 0.46.

For G7A C11G, the self-cleavage stood at 0.07. Turning to U49A U51C, the self-cleavage amounted to 0.66. Turning to G10C U66C, the self-cleavage was found to be 0.15. With A47G A57G, the self-cleavage was determined as 0.51. Take U26A U60C: the self-cleavage came out at 0.34. The figure for A3G G46C is 0.39; for C14U U78G it is 1.27.

For the variant U78A C79U, the self-cleavage worked out at 1.29. The figure for A18U G73C is 0.49.

U51C G73A: the self-cleavage is 1.24. The figure for A28U U54C is 0.78; for A15U A75U it is 0.87; for U51G U72A it is 0.91. In the case of A13G C23U it was 0.36. For the variant U49C C81G, the self-cleavage came to 0.51.

In the case of C11U U43C, the self-cleavage is 0.35. Regarding A20G C23U, the self-cleavage stood at 0.38. With A21G G53A, the self-cleavage amounted to 0.58.

Consider C17U A28C, for which the self-cleavage is 0.51.

On to A35C A64G, for which the self-cleavage is 0.3. In the case of G6A C62G it was 0.42; in that of G6U U76A, 0.32; in that of G19C C37U, 0.16. As to A3C A5C, the self-cleavage was 1.23. In the case of G24A U51C it was 0.31. The figure for U26A C39U is 0.56. The figure for U1C A2C is 0.94. Turning to A28C C79U, the self-cleavage amounted to 0.63.

For A28U U41C, the self-cleavage was found to be 0.73. In the case of U51C A57C, the self-cleavage was 0.44.

As to C12U G63A, the self-cleavage turned out to be 1.39. The figure for C44U G52U is 0.46.

Regarding A3G U76A, the self-cleavage amounted to 1.23. Regarding U54A U66G, the self-cleavage was 0.65. Turning to U1A G9C, the self-cleavage was found to be 0.1.

As to A3G G16U, the self-cleavage is 0.62. Consider G8U G22A, for which the self-cleavage is 0.12.

Turning to G24C U67C, the self-cleavage came to 0.11. The figure for A45C C81U is 0.45; for G42A U54C it is 0.57. Turning to A5C U26A, the self-cleavage is 1.04. Take C23G A77G: the self-cleavage turned out to be 0.67. In the case of A13G U80A it was 1.07; in that of U31C U54C, 0.8; in that of C12A U31A, 0.65. For the variant A20G C50U, the self-cleavage worked out at 0.99.

Consider A18C G33A, for which the self-cleavage came to 0.42. Consider U41C A47G, for which the self-cleavage worked out at 1. The figure for C39A A56G is 0.26; for U48C U51C it is 0.49. The figure for U43C U51A is 0.71; for C34A A64G it is 0.14; for A15G U25A it is 0.28. Take C23G U26C: the self-cleavage was found to be 0.25. Take U43C A45U: the self-cleavage was found to be 0.3. As for C40G U66C, the self-cleavage came to 0.22. The figure for C17U U31C is 0.42. The figure for G8U U60A is 0.07. U69G U80A: the self-cleavage worked out at 0.88. As to A3C C39U, the self-cleavage worked out at 1.13. As for C34G A35G, the self-cleavage was 0.86. The figure for U58G U72C is 0.28; for A18C U60A it is 0.23; for A21U U43C it is 0.26. As to U72A C81G, the self-cleavage was found to be 1.24. For U25A A56U, the self-cleavage came out at 0.27. As to U1C U25G, the self-cleavage turned out to be 0.22. U41C U72G: the self-cleavage is 0.92. The figure for G63A C68U is 0.96; for C12G A65U it is 0.1.

As for U51C U54G, the self-cleavage was 0.82. With G70C, the self-cleavage amounted to 0.31. As for G24C G42A, the self-cleavage was found to be 0.32. In the case of C50U A75U it was 1.22; in that of U26C U67A, 0.24. In the case of C27A U43A it was 0.39; in that of U1A A64U, 0.28. As for A3G U72A, the self-cleavage was 0.7. The figure for A20U U25G is 0.15; for A28U C59U it is 0.34. For U41A A56G, the self-cleavage was found to be 0.24. Regarding A3C C37U, the self-cleavage worked out at 0.6. In the case of A15C A64G it was 0.62; in that of C14U U58C, 0.77. In the case of A35U A75C it was 0.71; in that of A13U G24A, 0.26; in that of A47G U51A, 0.98. A47G U51G: the self-cleavage worked out at 0.79. The figure for U69C A77C is 0.54.

In the case of A56U G61A, the self-cleavage stood at 0.29. On to A20U U43C, for which the self-cleavage was found to be 0.29.

Take U49C A57U: the self-cleavage was 0.33.

G9A U69A: the self-cleavage was found to be 0.21.

With C4U U54A, the self-cleavage is 1.18. The figure for A57U U69C is 0.3. The figure for A57C U78C is 0.66; for G6A C38U it is 0.3; for C37U U76C it is 0.57. Take G63A A64C: the self-cleavage was 0.42. For G33A G73A, the self-cleavage was 0.51. On to G19U U31C, for which the self-cleavage was determined as 0.2. The figure for A28G C38G is 0.25. The figure for U43A A65G is 0.93; for G6A U41G it is 0.18. In the case of G42A U80A it was 0.79. Turning to C12A A15C, the self-cleavage was determined as 1.17. Regarding C29A C32A, the self-cleavage came to 0.32.

As to A3C U25C, the self-cleavage turned out to be 0.44.

In the case of C11A C68A, the self-cleavage came out at 0.14. For the variant A21G U80A, the self-cleavage turned out to be 0.72. The figure for U31C C38U is 0.98; for G8A A28U it is 0.14. In the case of A3G C12A it was 1.16.
